Drawing on the Human Domainome abundance scans (Beltran et al. 2025), this text covers abundance fitness for 44 variants.

± gives the uncertainty stated by the source.

B1: RUN and FYVE domain-containing protein 1, residues 639 to 698; numbered along this chain, Q96T51 (parent)
chain: WLKDDEATHCRQCEKEFSISRRKHHCRNCGHIFCNTCSSNELALPSYPKPVRVCDSCHTL

In the data set the parent is B1. Briefly: abundance fitness (aPCA) (normalised: wild type 0, dead -1); higher = more abundant; growth selection in yeast, the domain comes from the species named. The note with it: Homo sapiens.
For WLKDDEATHCRQCEKEDSISRRKHHCRNCGHIFCNTCSSNELALPSYPKPVRVCDSCHTL [F17D], the abundance fitness was -0.467 ± 0.087. The value for WLKDDEATHCRQCEKEWSISRRKHHCRNCGHIFCNTCSSNELALPSYPKPVRVCDSCHTL [F17W] was -0.381 ± 0.04.

Regarding WLKDDEATHCRQCEKEMSISRRKHHCRNCGHIFCNTCSSNELALPSYPKPVRVCDSCHTL [F17M], the abundance fitness is -0.571 ± 0.074.

Take WLKDDEATHCRQCEKEHSISRRKHHCRNCGHIFCNTCSSNELALPSYPKPVRVCDSCHTL [F17H]: the abundance fitness was -0.65 ± 0.12. Take WLKDDEATHCRQCEKERSISRRKHHCRNCGHIFCNTCSSNELALPSYPKPVRVCDSCHTL [F17R]: the abundance fitness was -0.677 ± 0.042.

Consider WLKDDEATHCRQCEKEQSISRRKHHCRNCGHIFCNTCSSNELALPSYPKPVRVCDSCHTL [F17Q], for which the abundance fitness is -0.765 ± 0.084. The figure for WLKDDEATHCRQCEKEISISRRKHHCRNCGHIFCNTCSSNELALPSYPKPVRVCDSCHTL [F17I] is -0.397 ± 0.12; for WLKDDEATHCRQCEKENSISRRKHHCRNCGHIFCNTCSSNELALPSYPKPVRVCDSCHTL [F17N] it is -1.02 ± 0.2. The value for WLKDDEATHCRQCEKESSISRRKHHCRNCGHIFCNTCSSNELALPSYPKPVRVCDSCHTL [F17S] was -0.709 ± 0.06; that for WLKDDEATHCRQCEKEKSISRRKHHCRNCGHIFCNTCSSNELALPSYPKPVRVCDSCHTL [F17K] was -0.676 ± 0.087; that for WLKDDEATHCRQCEKELSISRRKHHCRNCGHIFCNTCSSNELALPSYPKPVRVCDSCHTL [F17L] was -0.218 ± 0.034. The value for WLKDDEATHCRQCEKEYSISRRKHHCRNCGHIFCNTCSSNELALPSYPKPVRVCDSCHTL [F17Y] was -0.769 ± 0.12; that for WLKDDEATHCRQCEKETSISRRKHHCRNCGHIFCNTCSSNELALPSYPKPVRVCDSCHTL [F17T] was -0.574 ± 0.063.

WLKDDEATHCRQCEKEGSISRRKHHCRNCGHIFCNTCSSNELALPSYPKPVRVCDSCHTL [F17G]: the abundance fitness was -0.793 ± 0.052. The figure for WLKDDEATHCRQCEKEESISRRKHHCRNCGHIFCNTCSSNELALPSYPKPVRVCDSCHTL [F17E] is -0.68 ± 0.065. The figure for WLKDDEATHCRQCEKEVSISRRKHHCRNCGHIFCNTCSSNELALPSYPKPVRVCDSCHTL [F17V] is -0.662 ± 0.051; for WLKDDEATHCRQCEKEPSISRRKHHCRNCGHIFCNTCSSNELALPSYPKPVRVCDSCHTL [F17P] it is -0.624 ± 0.082; for WLKDDEATHCRQCEKEASISRRKHHCRNCGHIFCNTCSSNELALPSYPKPVRVCDSCHTL [F17A] it is -0.927 ± 0.078. Turning to WLKDDEATHCRQCEKGFSISRRKHHCRNCGHIFCNTCSSNELALPSYPKPVRVCDSCHTL [E16G], the abundance fitness was -0.18 ± 0.036. The value for WLKDDEATHCRQCEKAFSISRRKHHCRNCGHIFCNTCSSNELALPSYPKPVRVCDSCHTL [E16A] was -0.286 ± 0.04.

In the case of WLKDDEATHCRQCEKYFSISRRKHHCRNCGHIFCNTCSSNELALPSYPKPVRVCDSCHTL [E16Y], the abundance fitness was -0.349 ± 0.071. Regarding WLKDDEATHCRQCEKLFSISRRKHHCRNCGHIFCNTCSSNELALPSYPKPVRVCDSCHTL [E16L], the abundance fitness was -0.314 ± 0.041. The value for WLKDDEATHCRQCEKNFSISRRKHHCRNCGHIFCNTCSSNELALPSYPKPVRVCDSCHTL [E16N] was -0.029 ± 0.06; that for WLKDDEATHCRQCEKPFSISRRKHHCRNCGHIFCNTCSSNELALPSYPKPVRVCDSCHTL [E16P] was -0.195 ± 0.055. The figure for WLKDDEATHCRQCEKRFSISRRKHHCRNCGHIFCNTCSSNELALPSYPKPVRVCDSCHTL [E16R] is -0.412 ± 0.043; for WLKDDEATHCRQCEKDFSISRRKHHCRNCGHIFCNTCSSNELALPSYPKPVRVCDSCHTL [E16D] it is -0.123 ± 0.074; for WLKDDEATHCRQCEKCFSISRRKHHCRNCGHIFCNTCSSNELALPSYPKPVRVCDSCHTL [E16C] it is -0.29 ± 0.043.

For the variant WLKDDEATHCRQCEKTFSISRRKHHCRNCGHIFCNTCSSNELALPSYPKPVRVCDSCHTL [E16T], the abundance fitness is -0.339 ± 0.062. The value for WLKDDEATHCRQCEKKFSISRRKHHCRNCGHIFCNTCSSNELALPSYPKPVRVCDSCHTL [E16K] was -0.387 ± 0.08; that for WLKDDEATHCRQCEKHFSISRRKHHCRNCGHIFCNTCSSNELALPSYPKPVRVCDSCHTL [E16H] was -0.089 ± 0.1. The value for WLKDDEATHCRQCEKSFSISRRKHHCRNCGHIFCNTCSSNELALPSYPKPVRVCDSCHTL [E16S] was -0.179 ± 0.04; that for WLKDDEATHCRQCEKQFSISRRKHHCRNCGHIFCNTCSSNELALPSYPKPVRVCDSCHTL [E16Q] was -0.329 ± 0.077; that for WLKDDEATHCRQCEKFFSISRRKHHCRNCGHIFCNTCSSNELALPSYPKPVRVCDSCHTL [E16F] was -0.245 ± 0.074. The value for WLKDDEATHCRQCEKWFSISRRKHHCRNCGHIFCNTCSSNELALPSYPKPVRVCDSCHTL [E16W] was -0.638 ± 0.064; that for WLKDDEATHCRQCEKVFSISRRKHHCRNCGHIFCNTCSSNELALPSYPKPVRVCDSCHTL [E16V] was -0.282 ± 0.048.

Take WLKDDEATHCRQCEKEFSQSRRKHHCRNCGHIFCNTCSSNELALPSYPKPVRVCDSCHTL [I19Q]: the abundance fitness was 0.094 ± 0.047.

On to WLKDDEATHCRQCEKEFSCSRRKHHCRNCGHIFCNTCSSNELALPSYPKPVRVCDSCHTL [I19C], for which the abundance fitness was -1.15 ± 0.23. The figure for WLKDDEATHCRQCEKEFSASRRKHHCRNCGHIFCNTCSSNELALPSYPKPVRVCDSCHTL [I19A] is -0.177 ± 0.048; for WLKDDEATHCRQCEKEFSPSRRKHHCRNCGHIFCNTCSSNELALPSYPKPVRVCDSCHTL [I19P] it is -0.034 ± 0.045. The value for WLKDDEATHCRQCEKEFSSSRRKHHCRNCGHIFCNTCSSNELALPSYPKPVRVCDSCHTL [I19S] was -0.048 ± 0.035; that for WLKDDEATHCRQCEKEFSHSRRKHHCRNCGHIFCNTCSSNELALPSYPKPVRVCDSCHTL [I19H] was -0.036 ± 0.039; that for WLKDDEATHCRQCEKEFSFSRRKHHCRNCGHIFCNTCSSNELALPSYPKPVRVCDSCHTL [I19F] was -0.136 ± 0.046. The figure for WLKDDEATHCRQCEKEFSTSRRKHHCRNCGHIFCNTCSSNELALPSYPKPVRVCDSCHTL [I19T] is 0.095 ± 0.042; for WLKDDEATHCRQCEKEFSKSRRKHHCRNCGHIFCNTCSSNELALPSYPKPVRVCDSCHTL [I19K] it is 0.073 ± 0.079.
